Results: the Human Domainome abundance scans (Beltran et al. 2025)

B1: Zinc finger homeobox protein 3, residues 2643 to 2698; numbered along this chain, Q15911 (parent)
chain: RLRTTITPEQLEILYQKYLLDSNPTRKMLDHIAHEVGLKKRVVQVWFQNTRARERK

Variants of: B1
Assay: abundance fitness (aPCA) (normalised: wild type 0, dead -1); higher = more abundant; growth selection in yeast, the domain comes from the species named
Details: Homo sapiens

Abundance fitness of substitutions, site by site:
R51: W -0.135 | Y 0.073
E54: Q -0.495 | S -0.497 | A -0.478 | C -0.306 | M -0.177 | V -0.39 | R -0.701 | F -0.167 | G -0.305 | Y -0.438 | L -0.2 | D 0.014 | W -0.512 | I -0.197 | T -0.361 | H -0.229 | P -0.38 | N -0.531
R53: N 0.172 | V 0.013 | D 0.31 | L -0.006 | H -0.258 | M -0.132 | E 0.288 | F 0.239 | Y -0.327 | A 0.092 | C 0.052 | T 0.029 | S 0.133 | G 0.126 | K -0.045 | P -0.266
R55: N 0.462 | Q 0.216 | K 0.496 | Y 0.113 | W 0.017 | C 0.263 | E 0.255 | I 0.142 | T 0.479 | S 0.347 | A 0.239 | H 0.001 | F 0.004 | P 0.105 | M 0.483 | V 0.282
A52: S -0.021 | D 0.244 | T -0.419 | V -0.349 | E 0.291 | G -0.037 | M -0.138 | Q 0.21 | L -0.317 | N 0.062 | I -0.639 | W -0.335 | F -0.428 | C -0.209 | Y -0.221 | K 0.035 | P -0.598
K56: V -0.073 | N -0.07 | M -0.204 | H -0.17 | T 0.01 | R -0.35 | G 0.001 | L -0.527 | E 0.466 | S 0.262 | P -0.225 | A 0.034 | Y -0.54 | W -0.314 | Q 0.032
